B1: Abl interactor 1 (Homo sapiens), Q8IZP0-4 (parent)
chain: MAELQMLLEEEIPSGKRALIESYQNLTRVADYCENNYIQATDKRKALEETKAYTTQSLASVAYQINALANNVLQLLDIQASQLRRMESSINHISQTVDIHKEKVARREIGILTTNKNTSRTHKIIAPANMERPVRYIRKPIDYTVLDDVGHGVKWLKAKHGNNQPARTGTLSRTNPPTQKPPSPPMSGRGTLGRNTPYKTLEPVKPPTVPNDYMTSPARLGSQHSPGRTASLNQRPRTHSGSSGGSGSRENSGSSSIGIPIAVPTPSPPTIGPAPGSAPGSQYGTMTRQISRHNSTTSSTSSGGYRRTPSVTAQFSAQPHVNGGPLYSQNSIADSPTPPPPPPPDDIPMFDDSPPPPPPPPVDYEDEEAAVVQYNDPYADGDPAWAPKNYIEKVVAIYDYTKDKDDELSFMEGAIIYVIKKNDDGWYEGVCNRVTGLFPGNYVESIMHYTD

Variants of: B1
Settings: with Abl1, P00520-4
Sequence of Abl1, P00520-4 (P00520 other isoform, or with tags, fused parts or gaps): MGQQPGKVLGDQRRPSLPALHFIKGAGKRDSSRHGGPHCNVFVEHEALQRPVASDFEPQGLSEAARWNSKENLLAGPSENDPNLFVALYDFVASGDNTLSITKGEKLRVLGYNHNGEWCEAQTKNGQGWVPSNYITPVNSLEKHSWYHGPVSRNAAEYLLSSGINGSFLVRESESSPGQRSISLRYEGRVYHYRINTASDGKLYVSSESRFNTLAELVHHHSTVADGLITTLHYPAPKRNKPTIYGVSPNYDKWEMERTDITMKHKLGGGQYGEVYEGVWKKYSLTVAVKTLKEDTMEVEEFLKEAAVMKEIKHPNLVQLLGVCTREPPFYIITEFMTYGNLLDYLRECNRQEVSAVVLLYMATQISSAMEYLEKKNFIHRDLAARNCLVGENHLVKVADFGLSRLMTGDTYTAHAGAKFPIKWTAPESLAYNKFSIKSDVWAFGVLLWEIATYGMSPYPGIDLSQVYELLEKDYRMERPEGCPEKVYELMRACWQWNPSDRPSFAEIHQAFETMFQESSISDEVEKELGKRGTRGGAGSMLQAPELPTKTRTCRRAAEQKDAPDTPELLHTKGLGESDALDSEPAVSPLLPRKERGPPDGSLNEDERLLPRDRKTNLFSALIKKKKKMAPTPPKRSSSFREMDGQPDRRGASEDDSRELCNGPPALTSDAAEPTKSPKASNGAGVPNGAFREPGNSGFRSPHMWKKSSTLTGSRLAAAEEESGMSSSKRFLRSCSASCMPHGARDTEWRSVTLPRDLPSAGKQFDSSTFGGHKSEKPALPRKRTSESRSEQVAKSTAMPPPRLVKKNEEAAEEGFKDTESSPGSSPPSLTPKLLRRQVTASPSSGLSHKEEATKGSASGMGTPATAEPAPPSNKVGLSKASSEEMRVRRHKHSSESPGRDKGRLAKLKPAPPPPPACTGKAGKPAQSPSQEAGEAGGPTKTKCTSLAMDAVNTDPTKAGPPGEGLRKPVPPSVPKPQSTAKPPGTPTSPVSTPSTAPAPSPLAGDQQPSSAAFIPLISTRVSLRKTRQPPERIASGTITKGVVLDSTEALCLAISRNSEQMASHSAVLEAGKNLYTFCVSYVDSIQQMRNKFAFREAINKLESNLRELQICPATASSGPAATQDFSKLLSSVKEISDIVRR

Variant	effect of a mutation on the interaction
Y398F	decreasing interaction
Y213F	decreasing interaction

From IntAct's records for PubMed 21320496
